Test results: the supplement of paper PMC10065799, “High-throughput profiling of sequence recognition by tyrosine kinases and SH2 domains using bacterial peptide display” (eLife, 2023)

Legend:
c-Src SH2 = assay: SH2 binding enrichment of the phosphorylated peptide, bacterial display (enrichment ratio); higher = better substrate or ligand; peptides without Tyr show the background
Grb2 SH2 = Grb2 SH2 (UniProt P62993); assay: as above
SHP2-C SH2 = assay: as above
Fyn = Fyn (UniProt P06241); assay: phosphorylation enrichment, bacterial display (enrichment ratio); higher = better substrate or ligand; peptides without Tyr show the background
Hck = Hck (UniProt P08631); assay: as above
EPHB2 = EPHB2 (UniProt P29323); assay: as above
EPHB1 = EPHB1 (UniProt P54762); assay: as above
c-Abl (mouse) = assay: as above
Fes = Fes (UniProt P07332); assay: as above
c-Src = assay: as above
AncSZ = assay: as above
MERTK = MERTK (UniProt Q12866); assay: as above
Fer (mouse) = assay: as above
Jak2 = Jak2 (UniProt O60674); assay: as above
FGFR3 = FGFR3 (UniProt P22607); assay: as above
FGFR1 = FGFR1 (UniProt P11362); assay: as above
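For SH2 binding enrichment of the phosphorylated peptide, bacterial display in this document: peptide library displayed on the E. coli surface as eCPX fusions, selected cells deep-sequenced, score is each peptide's frequency after selection divided by its frequency in the input.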
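For phosphorylation enrichment, bacterial display in this document: 11-residue human phosphosite peptides and single-mutation variants displayed on the E. coli surface, counted by deep sequencing, each peptide's frequency after selection divided by its frequency in the unselected input library; frequency after pTyr selection over input frequency; kinase dosed for 20-30% of maximal phosphorylation in three min.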

FGFR1, sequence (P11362 whole entry, looked up, the tested form may be a part): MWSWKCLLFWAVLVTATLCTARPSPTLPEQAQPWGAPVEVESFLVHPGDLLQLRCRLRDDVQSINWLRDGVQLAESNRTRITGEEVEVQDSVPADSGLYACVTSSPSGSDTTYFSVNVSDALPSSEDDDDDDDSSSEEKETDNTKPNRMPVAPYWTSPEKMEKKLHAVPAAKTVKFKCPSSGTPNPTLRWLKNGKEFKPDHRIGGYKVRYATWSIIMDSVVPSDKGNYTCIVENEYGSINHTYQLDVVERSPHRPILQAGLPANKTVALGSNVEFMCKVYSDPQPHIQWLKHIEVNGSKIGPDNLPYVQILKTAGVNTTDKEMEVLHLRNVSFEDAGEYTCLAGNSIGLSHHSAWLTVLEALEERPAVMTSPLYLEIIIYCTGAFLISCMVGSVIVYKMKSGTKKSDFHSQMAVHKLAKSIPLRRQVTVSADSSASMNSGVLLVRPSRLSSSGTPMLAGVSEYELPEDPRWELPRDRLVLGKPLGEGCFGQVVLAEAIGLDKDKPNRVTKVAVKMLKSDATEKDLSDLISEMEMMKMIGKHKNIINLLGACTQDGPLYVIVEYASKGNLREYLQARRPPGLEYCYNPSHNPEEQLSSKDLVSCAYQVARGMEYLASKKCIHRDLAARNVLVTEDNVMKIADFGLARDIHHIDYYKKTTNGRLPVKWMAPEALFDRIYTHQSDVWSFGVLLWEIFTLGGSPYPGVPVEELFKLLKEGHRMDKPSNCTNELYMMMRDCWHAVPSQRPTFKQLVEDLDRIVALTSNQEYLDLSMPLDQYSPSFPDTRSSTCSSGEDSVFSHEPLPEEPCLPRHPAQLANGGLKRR
MERTK, sequence (Q12866 whole entry, looked up): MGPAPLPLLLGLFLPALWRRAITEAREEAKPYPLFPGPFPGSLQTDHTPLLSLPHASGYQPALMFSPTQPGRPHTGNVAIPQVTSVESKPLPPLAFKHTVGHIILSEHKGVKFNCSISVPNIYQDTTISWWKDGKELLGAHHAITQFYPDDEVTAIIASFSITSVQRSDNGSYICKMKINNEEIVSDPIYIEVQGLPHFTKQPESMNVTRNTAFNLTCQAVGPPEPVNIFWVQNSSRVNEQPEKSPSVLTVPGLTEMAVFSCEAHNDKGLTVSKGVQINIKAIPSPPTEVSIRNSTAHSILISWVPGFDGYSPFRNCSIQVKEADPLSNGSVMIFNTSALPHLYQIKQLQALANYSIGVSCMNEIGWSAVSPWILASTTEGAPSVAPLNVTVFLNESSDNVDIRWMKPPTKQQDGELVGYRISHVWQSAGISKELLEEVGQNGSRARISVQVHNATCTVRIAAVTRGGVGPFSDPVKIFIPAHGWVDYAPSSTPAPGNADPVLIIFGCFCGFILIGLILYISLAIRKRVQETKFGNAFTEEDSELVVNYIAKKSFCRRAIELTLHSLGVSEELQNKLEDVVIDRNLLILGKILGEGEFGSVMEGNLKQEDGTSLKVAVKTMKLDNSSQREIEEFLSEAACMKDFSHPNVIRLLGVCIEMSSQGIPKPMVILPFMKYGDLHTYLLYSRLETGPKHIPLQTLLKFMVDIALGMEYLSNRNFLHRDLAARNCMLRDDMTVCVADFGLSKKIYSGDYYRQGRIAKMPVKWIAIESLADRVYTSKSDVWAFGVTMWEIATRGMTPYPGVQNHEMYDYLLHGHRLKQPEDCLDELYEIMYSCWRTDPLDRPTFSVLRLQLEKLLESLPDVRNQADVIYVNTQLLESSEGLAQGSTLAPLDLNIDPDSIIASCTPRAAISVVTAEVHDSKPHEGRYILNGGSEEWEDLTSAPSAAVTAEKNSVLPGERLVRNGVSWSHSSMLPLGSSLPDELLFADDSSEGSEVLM
Fes, sequence (P07332 whole entry, looked up): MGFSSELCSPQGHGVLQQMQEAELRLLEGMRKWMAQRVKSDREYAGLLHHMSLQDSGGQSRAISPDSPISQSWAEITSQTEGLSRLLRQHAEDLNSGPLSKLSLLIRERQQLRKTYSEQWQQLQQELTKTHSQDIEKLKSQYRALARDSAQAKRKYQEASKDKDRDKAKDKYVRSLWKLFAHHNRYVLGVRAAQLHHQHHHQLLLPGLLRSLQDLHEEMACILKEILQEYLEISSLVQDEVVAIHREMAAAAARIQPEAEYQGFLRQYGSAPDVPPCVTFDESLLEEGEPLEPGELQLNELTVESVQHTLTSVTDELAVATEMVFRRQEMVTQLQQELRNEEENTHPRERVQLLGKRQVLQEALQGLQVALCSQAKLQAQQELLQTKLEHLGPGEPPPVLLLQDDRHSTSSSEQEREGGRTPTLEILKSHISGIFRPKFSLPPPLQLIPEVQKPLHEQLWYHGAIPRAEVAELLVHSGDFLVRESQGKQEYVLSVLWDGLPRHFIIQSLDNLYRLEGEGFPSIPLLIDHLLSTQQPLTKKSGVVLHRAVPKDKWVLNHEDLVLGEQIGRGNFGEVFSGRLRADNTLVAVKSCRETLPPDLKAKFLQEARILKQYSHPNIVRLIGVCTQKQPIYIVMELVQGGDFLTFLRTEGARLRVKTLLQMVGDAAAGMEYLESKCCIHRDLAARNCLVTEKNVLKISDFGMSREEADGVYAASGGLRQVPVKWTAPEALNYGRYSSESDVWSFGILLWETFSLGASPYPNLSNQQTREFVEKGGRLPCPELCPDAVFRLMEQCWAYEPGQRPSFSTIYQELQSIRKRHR
FGFR3, sequence (P22607 whole entry, looked up): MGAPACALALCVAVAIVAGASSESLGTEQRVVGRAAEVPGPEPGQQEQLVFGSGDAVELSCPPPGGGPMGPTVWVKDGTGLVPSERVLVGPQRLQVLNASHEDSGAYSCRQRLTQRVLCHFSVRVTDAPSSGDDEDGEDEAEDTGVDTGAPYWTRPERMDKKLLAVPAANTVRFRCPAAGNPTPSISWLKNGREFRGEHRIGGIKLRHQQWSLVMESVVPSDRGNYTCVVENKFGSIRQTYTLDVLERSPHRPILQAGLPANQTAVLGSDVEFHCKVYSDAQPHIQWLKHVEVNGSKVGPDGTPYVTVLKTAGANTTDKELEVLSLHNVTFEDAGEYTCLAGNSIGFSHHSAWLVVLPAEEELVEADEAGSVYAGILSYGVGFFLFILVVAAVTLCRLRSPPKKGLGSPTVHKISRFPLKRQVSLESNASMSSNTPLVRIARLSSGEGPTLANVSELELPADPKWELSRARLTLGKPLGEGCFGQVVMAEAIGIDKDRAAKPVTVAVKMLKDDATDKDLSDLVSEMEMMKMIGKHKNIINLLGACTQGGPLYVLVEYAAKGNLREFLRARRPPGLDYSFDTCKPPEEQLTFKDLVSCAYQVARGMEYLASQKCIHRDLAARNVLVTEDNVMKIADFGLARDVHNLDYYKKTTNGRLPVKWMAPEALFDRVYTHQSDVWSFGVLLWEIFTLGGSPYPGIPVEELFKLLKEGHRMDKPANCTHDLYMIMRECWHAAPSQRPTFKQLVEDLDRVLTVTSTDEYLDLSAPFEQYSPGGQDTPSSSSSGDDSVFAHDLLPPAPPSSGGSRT
EPHB1, sequence (P54762 whole entry, looked up): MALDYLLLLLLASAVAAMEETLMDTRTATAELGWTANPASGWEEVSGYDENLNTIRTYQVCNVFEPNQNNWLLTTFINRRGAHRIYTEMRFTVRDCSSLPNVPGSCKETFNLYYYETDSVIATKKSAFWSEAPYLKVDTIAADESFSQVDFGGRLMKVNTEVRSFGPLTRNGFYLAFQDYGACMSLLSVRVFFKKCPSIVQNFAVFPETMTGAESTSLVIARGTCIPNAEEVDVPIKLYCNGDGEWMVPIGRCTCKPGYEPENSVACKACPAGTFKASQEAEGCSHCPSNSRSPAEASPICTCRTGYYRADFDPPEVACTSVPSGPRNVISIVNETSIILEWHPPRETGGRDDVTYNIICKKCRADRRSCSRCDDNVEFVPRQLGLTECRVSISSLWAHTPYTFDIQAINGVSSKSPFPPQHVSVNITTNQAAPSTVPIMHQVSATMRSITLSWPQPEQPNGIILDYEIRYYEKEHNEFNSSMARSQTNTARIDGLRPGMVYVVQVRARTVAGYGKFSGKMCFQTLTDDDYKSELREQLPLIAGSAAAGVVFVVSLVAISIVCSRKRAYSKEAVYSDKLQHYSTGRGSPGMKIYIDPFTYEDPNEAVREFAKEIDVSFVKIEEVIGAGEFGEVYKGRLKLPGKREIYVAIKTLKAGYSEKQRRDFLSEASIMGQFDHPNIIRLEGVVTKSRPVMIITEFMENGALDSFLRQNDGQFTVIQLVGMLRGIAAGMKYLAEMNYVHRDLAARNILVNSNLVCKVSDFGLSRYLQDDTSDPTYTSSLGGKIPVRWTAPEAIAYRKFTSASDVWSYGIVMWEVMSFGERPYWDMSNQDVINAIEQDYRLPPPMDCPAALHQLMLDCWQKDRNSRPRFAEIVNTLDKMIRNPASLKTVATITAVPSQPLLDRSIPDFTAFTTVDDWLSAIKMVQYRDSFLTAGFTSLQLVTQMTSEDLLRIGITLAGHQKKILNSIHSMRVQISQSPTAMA
Fyn, sequence (P06241 whole entry, looked up): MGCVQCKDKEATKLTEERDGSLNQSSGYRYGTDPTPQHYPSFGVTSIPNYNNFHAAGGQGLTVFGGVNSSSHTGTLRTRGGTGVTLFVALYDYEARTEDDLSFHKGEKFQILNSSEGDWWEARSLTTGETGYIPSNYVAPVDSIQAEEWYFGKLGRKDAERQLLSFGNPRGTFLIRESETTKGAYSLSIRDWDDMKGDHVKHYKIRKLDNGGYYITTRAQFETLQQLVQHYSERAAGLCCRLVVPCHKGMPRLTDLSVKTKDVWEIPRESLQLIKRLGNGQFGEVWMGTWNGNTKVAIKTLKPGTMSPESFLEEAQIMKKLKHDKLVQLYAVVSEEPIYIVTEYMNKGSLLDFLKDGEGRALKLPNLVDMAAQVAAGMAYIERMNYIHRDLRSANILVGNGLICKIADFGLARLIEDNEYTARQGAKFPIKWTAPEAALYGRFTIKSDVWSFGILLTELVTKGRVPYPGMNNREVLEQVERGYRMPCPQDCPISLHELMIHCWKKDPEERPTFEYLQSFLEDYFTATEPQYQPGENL

| Sequence | SH2 binding enrichment (c-Src SH2) | SH2 binding enrichment (Grb2 SH2) | SH2 binding enrichment (SHP2-C SH2) | phosphorylation enrichment (Fyn) | phosphorylation enrichment (Hck) | phosphorylation enrichment (EPHB2) | phosphorylation enrichment (EPHB1) | phosphorylation enrichment (c-Abl (mouse)) | phosphorylation enrichment (Fes) | phosphorylation enrichment (c-Src) | phosphorylation enrichment (AncSZ) | phosphorylation enrichment (MERTK) | phosphorylation enrichment (Fer (mouse)) | phosphorylation enrichment (Jak2) | phosphorylation enrichment (FGFR3) | phosphorylation enrichment (FGFR1) |
| --- | --- | --- | --- | --- | --- | --- | --- | --- | --- | --- | --- | --- | --- | --- | --- | --- |
| EKRDAYVSCLN [GSR_Y150_R153C] | 0.878 | 1.19 | 0.934 | 0.481 | 0.53 | 0.472 | 0.568 | 0.776 | 1.1 | 0.514 | 0.925 | 0.472 | 0.437 | 0.726 | 0.702 | 0.563 |
| FSEVRYVKEPF [HIPK4_Y170_YF] | 0.487 | 1.03 | 0.783 | 0.513 | 0.483 | 0.527 | 0.403 | 0.676 | 0.831 | 0.44 | 0.748 | 0.414 | 0.505 | 0.584 | 0.884 | 0.586 |
| FRAVKYLQMVG [AVPR2_Y117_C112Y_YF] | 0.552 | 0.96 | 3.15 | 0.397 | 0.319 | 0.393 | 0.509 | 0.629 | 1.26 | 0.496 | 0.889 | 0.366 | 0.366 | 0.902 | 0.518 | 0.387 |
| CDKEYYSVHNK [MET_Y1235_Y1230C] | 0.51 | 0.655 | 0.553 | 0.608 | 0.788 | 0.69 | 0.734 | 0.949 | 1.2 | 0.761 | 2.06 | 0.573 | 0.601 | 1.32 | 2.09 | 2.49 |
| HFPFQCHRQLY [F12_Y53_Y53C] | 1.16 | 1.21 | 1.15 | 0.528 | 0.681 | 0.645 | 0.559 | 0.532 | 1.05 | 0.422 | 0.689 | 0.597 | 0.385 | 0.861 | 0.564 | 0.639 |
| FVFSFYHAFSG [ACTN4_Y265_S262F_YF] | 1.04 | 1.55 | 1.31 | 0.505 | 0.525 | 0.812 | 0.808 | 0.994 | 1.1 | 0.714 | 0.963 | 1.6 | 0.455 | 1.25 | 0.693 | 0.492 |
| NSNAAYEQSHF [LRIF1_Y714] | 0.769 | 0.755 | 0.663 | 0.504 | 0.445 | 0.479 | 0.327 | 0.574 | 0.616 | 0.395 | 0.575 | 0.388 | 0.417 | 0.418 | 0.55 | 0.48 |
| KLLPEYPGILS [DHFR2_Y163_V166I] | 0.528 | 0.884 | 0.71 | 0.436 | 0.419 | 0.458 | 0.488 | 0.627 | 0.832 | 0.431 | 0.772 | 0.376 | 0.466 | 0.739 | 0.524 | 0.467 |
| LSSETYVKSYT [F5_Y2149_M2148T] | 0.555 | 0.936 | 0.818 | 0.726 | 0.529 | 0.74 | 0.553 | 0.908 | 0.902 | 0.668 | 0.946 | 0.513 | 0.738 | 1.37 | 0.582 | 0.606 |
| LDLSYYPTSSS [EMD_Y182] | 1.24 | 0.853 | 0.66 | 0.762 | 0.947 | 1.18 | 1.21 | 1.41 | 1.81 | 0.72 | 2.17 | 0.955 | 0.835 | 5.02 | 3.28 | 3.94 |
| ARAGEYGAEAL [HBA1_Y25_H21R] | 0.487 | 0.923 | 0.667 | 0.655 | 0.432 | 0.469 | 0.465 | 0.571 | 0.829 | 0.396 | 0.866 | 0.379 | 0.383 | 0.697 | 0.524 | 0.473 |
| WDLTDYLMKIL [ACTB_Y188_R183W] | 1.32 | 1.66 | 1.92 | 0.519 | 0.611 | 0.548 | 0.556 | 0.894 | 1.32 | 0.487 | 1.25 | 0.477 | 0.529 | 1.23 | 0.777 | 0.539 |
| AKLKDYYIFNK [CCDC42_Y149] | 0.823 | 1 | 0.711 | 0.515 | 0.503 | 0.594 | 0.449 | 0.65 | 0.635 | 0.808 | 0.596 | 0.704 | 0.457 | 0.605 | 2.16 | 3.4 |
| NKHTTYTMEHI [ACTN1_Y708_N707T] | 0.565 | 0.865 | 0.787 | 0.419 | 0.451 | 0.4 | 0.394 | 0.514 | 0.575 | 0.45 | 0.527 | 0.434 | 0.397 | 0.447 | 0.445 | 0.395 |
| GRQWNYVASML [KLHL4_Y552_S557L] | 0.945 | 1.25 | 1.33 | 0.434 | 0.418 | 0.481 | 0.405 | 0.591 | 0.809 | 0.391 | 0.731 | 0.367 | 0.366 | 0.737 | 0.565 | 0.382 |
| NKVKFYIPYMN [NCR1_Y84_D87Y] | 1.51 | 1.74 | 1.65 | 0.394 | 0.431 | 0.496 | 0.599 | 0.609 | 1.06 | 0.495 | 0.919 | 0.473 | 0.469 | 0.893 | 0.655 | 0.483 |
| RAHARYCADAR [ACOT4_Y52] | 0.656 | 0.92 | 0.746 | 0.392 | 0.54 | 0.676 | 0.444 | 0.689 | 1.08 | 0.419 | 0.614 | 0.444 | 0.333 | 0.533 | 0.633 | 0.406 |

Now from value to sequence, other results behind:

| SH2 binding enrichment (c-Src SH2) | SH2 binding enrichment (Grb2 SH2) | SH2 binding enrichment (SHP2-C SH2) | Sequence | phosphorylation enrichment (Fyn) | phosphorylation enrichment (Hck) | phosphorylation enrichment (EPHB2) | phosphorylation enrichment (EPHB1) | phosphorylation enrichment (c-Abl (mouse)) | phosphorylation enrichment (Fes) | phosphorylation enrichment (c-Src) | phosphorylation enrichment (AncSZ) | phosphorylation enrichment (MERTK) | phosphorylation enrichment (Fer (mouse)) | phosphorylation enrichment (Jak2) | phosphorylation enrichment (FGFR3) | phosphorylation enrichment (FGFR1) |
| --- | --- | --- | --- | --- | --- | --- | --- | --- | --- | --- | --- | --- | --- | --- | --- | --- |
| 0.632 | 0.881 | 0.612 | GSQERDFELVE [TSC2_Y407_Y407D] | 0.522 | 0.493 | 0.492 | 0.466 | 0.69 | 1.04 | 0.523 | 1.08 | 0.484 | 0.46 | 1.07 | 0.717 | 0.489 |
| 0.568 | 0.955 | 0.896 | TFQFKYPEGSS [TGM4_Y440_E437Q_YF] | 0.529 | 0.491 | 0.478 | 0.496 | 0.564 | 0.943 | 0.427 | 0.841 | 0.44 | 0.363 | 0.69 | 0.722 | 0.521 |
| 7.21 | 0.837 | 0.993 | KGYCGYSYDDI [TMEM230_Y110_R108C] | 0.468 | 0.563 | 0.536 | 0.557 | 0.621 | 0.972 | 0.862 | 1.35 | 0.607 | 0.89 | 0.891 | 0.823 | 0.927 |
| 0.695 | 0.7 | 0.509 | RRNNSYTCFTA [SLC20A2_Y386_YF] | 1.19 | 0.771 | 1.65 | 0.96 | 1.86 | 1.68 | 1.69 | 2.81 | 1.3 | 0.734 | 1.95 | 1.33 | 0.886 |
| 0.409 | 0.646 | 0.513 | SKNFTYIWWLN [PSG4_Y271_YF] | 0.416 | 0.435 | 0.611 | 0.675 | 0.78 | 1.36 | 0.402 | 1.18 | 0.391 | 0.508 | 1.26 | 0.884 | 0.498 |
| 0.774 | 1.13 | 1.55 | SWSTSYSGFRF [NKAPL_Y91_YF] | 0.739 | 0.858 | 0.663 | 0.588 | 0.728 | 1.38 | 1.69 | 1.17 | 0.535 | 1.61 | 0.821 | 0.719 | 0.637 |
| 1.11 | 1.41 | 1.04 | LLIMEYAKYGS [RET_Y806_V804M] | 1.03 | 0.64 | 1.02 | 1.4 | 1.51 | 1.81 | 0.973 | 1.39 | 0.6 | 0.903 | 2.18 | 1.19 | 0.999 |
| 0.417 | 0.7 | 0.567 | EILLSDLRTGF [TGM1_Y365_Y365D_YF] | 0.464 | 0.478 | 0.477 | 0.42 | 0.631 | 0.891 | 0.418 | 0.779 | 0.378 | 0.576 | 0.69 | 0.56 | 0.487 |
| 0.668 | 0.854 | 0.7 | KMKGDYFCFLA [YWHAG_Y130_R132C_YF] | 2.13 | 1 | 1.56 | 2.48 | 2.24 | 1.18 | 2.94 | 2.31 | 2.32 | 0.548 | 6.97 | 9.56 | 11.9 |
| 0.767 | 5.66 | 1.44 | ILGRTHYVNHE [NEDD4_Y627_Y627H] | 0.373 | 0.318 | 0.671 | 0.468 | 0.596 | 0.593 | 0.482 | 0.565 | 0.398 | 0.376 | 0.582 | 0.434 | 0.419 |
| 0.431 | 0.849 | 0.821 | FAADFYKLLGN [ROR2_Y646_YF] | 0.366 | 0.484 | 0.512 | 0.474 | 0.738 | 1.01 | 0.524 | 1.02 | 0.438 | 0.366 | 1.16 | 0.66 | 0.365 |
| 0.444 | 0.732 | 0.557 | GLALRYLSDHS [VWF_Y1584] | 0.465 | 0.549 | 0.471 | 0.518 | 0.501 | 0.838 | 0.539 | 0.873 | 0.38 | 0.723 | 0.898 | 0.583 | 0.565 |
